Assay [1] addresses recombinant soluble human CD4 (human, UniProt P01730). Description: ELISA. (In general: An ELISA detects its analyte on a solid surface through an enzyme-linked reagent.)
Assay [2] concerns the target recombinant soluble rhesus CD4 (Macaca mulatta (rhesus macaque), UniProt P16003). Nature of the assay: ELISA.

Chain of recombinant soluble rhesus CD4 (P16003 26-396): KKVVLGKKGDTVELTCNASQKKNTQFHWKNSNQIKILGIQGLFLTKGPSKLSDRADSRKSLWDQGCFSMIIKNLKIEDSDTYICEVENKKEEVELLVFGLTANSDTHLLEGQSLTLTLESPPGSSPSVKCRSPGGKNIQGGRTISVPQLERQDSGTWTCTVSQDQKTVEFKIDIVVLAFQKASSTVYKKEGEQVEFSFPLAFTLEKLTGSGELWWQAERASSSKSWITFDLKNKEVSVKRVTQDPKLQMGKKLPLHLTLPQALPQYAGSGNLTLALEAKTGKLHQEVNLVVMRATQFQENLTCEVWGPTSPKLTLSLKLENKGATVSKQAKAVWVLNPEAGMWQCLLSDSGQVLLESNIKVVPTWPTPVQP

B1: mAb 2D5 (anti-CD4 monoclonal antibody) (antibody, V domains shown)
VH: QVKLQQSGPELKKPGETVKISCKASGYTFTDYSMHWVKQAPGKGLKWLGRINTETGEAKYVDDFMGHLAFSLETSASTAYLQINNLKNEDTATYFCARYDGYSWDAMDYWGQGTSVIVSS
VL: DIMLTQSPASLTVSLGQRATMSCRASQSVSTSRYSYMHWYQEKAGQPPQLLIKYASNLESGVPARFSGSGSGTDFTLNIHPVEAEDTATYYCQHSWEIPYTFGGGTKLEIK
Turning to B1, the binding result in assay [1] and in assay [2] was “binds” throughout.

For the origin of these results see article PMC4562469 (Science translational medicine, 2014).
